# Data reported in US20110206696A1, “METHODS FOR INHIBITING BONE LOSS AND BONE METASTASIS” (THE WASHINGTON UNIVERSITY, priority 2010, published 2011).
# B1: RANKL: receptor activator of nuclear factor-KB ligand, cytokine for differentiation of macrophages into osteoclasts (protein, UniProt O14788 140-317, looked up)
# Tumor necrosis factor ligand …: IRAEKAMVDGSWLDLAKRSKLEAQPFAHLTINATDIPSGSHKVSLSSWYHDRGWAKISNMTFSNGKLIVNQDGFYYLYANICFRHHETSGDLATEYLQLMVYVTKTSIKIPSSHTLMKGGSTKYWSGNSEFHFYSINVGGFFKLRSGEEISIEVSNPSLLDPDQDATYFGAFKVRDID
# modifications: GST tag
# Legend:
# [1] = biological target: T1, CD47 (Homo sapiens, UniProt Q08722); details: cited from earlier work
# [2] = biological target: T1, CD47; details: cited from earlier work; remark: listed apart in the source
# [3] = biological target: SIRP (Homo sapiens, UniProt P78324); details: cited from earlier work
# [4] = tested on: CD47−/− mice; assay: In vivo RANKL injections, serum CTX and calvarial TRAP staining; set-up: species or system mouse; details: RANKL injected subperiostally into midline calvaria of 8-week old mice, once a day for 5 days
# Protocol: A. 100 μg of RANKL was delivered subperiostally onto the midline calvaria of WT (n=5) and CD47−/− (n=5) mice. Serum CTX was measured before and after RANKL injections. WT vs. CD47−/− pre-RANKL p<0.01, WT vs. CD47−/− post-RANKL p=0.74, WT pre-RANKL vs. post-RANKL p=0.03, CD47−/− pre-RANKL vs. post-RANKL p<0.01. B. Representative images of TRAP stained calvarial sections. Arrows point to recruited OCs.
# We measured serum CTX pre and post-RANKL injections in these mice. Pre-RANKL injection, CD47−/− mice had lower serum CTX as we have shown before (FIG. 4A). […] Furthermore, direct visualization of OC recruitment by TRAP staining on histological sections of calvarial bone in WT and CD47−/− mice confirmed the CTX results (FIG. 4B). We conclude that a high dose of RANKL rescued the cell-autonomous OC defect in CD47−/− mice.
# CTX was measured from WT or CD47−/− mouse fasting serum by using a CTX ELISA system (Nordic Bioscience Diagnostics, Herlev, Denmark).
# 100 μg of RANKL in a volume of 40 μl was injected subperiostially in the midline calvaria in 8 week-old mice once a day for 5 consecutive days. On the sixth day, serum was collected, mice were sacrificed and the calvarial bone was isolated. TRAP staining was performed on fixed, decalcified and paraffin-embedded calvarial bone.
# [5] = tested on: CD47−/− macrophages; assay: In vitro osteoclast differentiation, actin ring and bone resorption assays at high RANKL dose; type: cell-based, mouse; details: RANKL increased two-fold to 100 ng/ml; 50 ng/ml M-CSF
# Protocol: A. FACS analysis on WT and CD47-/- total bone marrow. WT and CD47-/- total bone marrow was stained for CD47 and F4/80. B. QPCR graph showing induction of CD47 transcript over the 7-day course of OC differentiation. C. Representative images of day 5 OCs cultured on bone and stained for TRAP (left panel) and cultured on bovine bone and stained for actin rings (right panel) in the presence of 50 ng/ml of M-CSF and 50 ng/ml or 100 ng/ml of RANKL are shown. D. Representative images of day 5 OCs cultured on bone and stained for resorption lacunae in the presence of 50 ng/ml of M-CSF and either 50 ng/ml of RANKL (left panel) and 100 ng/ml of RANKL (right panel) are shown. E. The pit (resorption lacunae) area was measured by histomorphometry. 50 ng/ml RANKL (p=0.04), 100 ng/ml RANKL (p=0.18). To investigate if the OC defect is cell-autonomous in CD474-/- mice, it was first determined if macrophages or OC precursors were decreased in CD47-/- bone marrow. WT and CD47-/- whole bone marrow were stained with CD47-FITC as control and F4/80 as a macrophage marker and carried out flow cytometry. No significant difference in F4/80+cells in CD47-/- bone marrow compared to WT control was observed (FIG. 3A). To test the differentiation of macrophages to OCs, we cultured whole bone marrow in M-CSF alone for 3 days to enrich for macrophages. […]
# T1 sequence (Q08722 19-323, species assumed): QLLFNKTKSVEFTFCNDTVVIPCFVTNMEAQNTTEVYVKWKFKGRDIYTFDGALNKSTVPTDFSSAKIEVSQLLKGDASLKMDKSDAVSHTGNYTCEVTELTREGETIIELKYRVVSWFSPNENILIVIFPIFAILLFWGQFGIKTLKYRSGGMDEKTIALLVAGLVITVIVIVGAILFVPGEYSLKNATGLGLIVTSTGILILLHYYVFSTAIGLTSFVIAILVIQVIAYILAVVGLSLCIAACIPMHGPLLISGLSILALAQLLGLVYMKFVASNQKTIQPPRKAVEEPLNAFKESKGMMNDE
# Sequence of SIRP (P78324 31-504, species assumed): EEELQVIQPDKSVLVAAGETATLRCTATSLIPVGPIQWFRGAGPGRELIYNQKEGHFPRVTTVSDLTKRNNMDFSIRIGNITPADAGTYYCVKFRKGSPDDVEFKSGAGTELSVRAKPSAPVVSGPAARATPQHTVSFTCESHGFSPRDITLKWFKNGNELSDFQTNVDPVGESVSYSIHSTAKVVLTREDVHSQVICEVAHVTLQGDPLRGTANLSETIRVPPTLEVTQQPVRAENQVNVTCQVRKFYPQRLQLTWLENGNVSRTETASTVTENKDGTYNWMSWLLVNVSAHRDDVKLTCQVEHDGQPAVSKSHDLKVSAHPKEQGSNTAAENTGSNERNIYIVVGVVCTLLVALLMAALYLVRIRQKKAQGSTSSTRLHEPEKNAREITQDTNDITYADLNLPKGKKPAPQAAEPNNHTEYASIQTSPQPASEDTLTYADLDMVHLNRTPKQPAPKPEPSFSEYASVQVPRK
molecule,measurement,setting,value
IGWKDFTAYR,Binding to CD47,[1],found to bind CD47
CERVIGTGWVRC,CD47 activity / signaling,[2],inhibit CD47 activity in vitro
same,Binding to SIRP,[3],binds to SIRP
"p7N3: CD47-binding peptide from the C-terminal module of TSP1, FIRWMYEGKK",CD47 activity / signaling,[2],blocked (or disrupted) CD47 signaling
B1,"OC activation as measured by serum CTX, WT vs CD47−/− mice after RANKL",[4],not significantly different
same,OC differentiation of CD47−/− cells,[5],OC differentiation defect was largely rescued
